Assay results: patent publication US20100260668A1 (published 2010)
“And” between values parts separate entries of the source, which are not always exact repeats. Equal entries are not always repeated. Blank lines part the entries; values can stand above or below the binder they belong to.

Columns and labels:
[1] = molecular target: T1, VEGF (UniProt P15692 27-191, limits assumed); experiment: direct bind ELISA, antigen on plate; reference antibody
T1 construct: Bought antigen coated on the ELISA plate; also called vascular endothelial growth factor
T1 sequence (P15692 other isoform, or with tags, fused parts or gaps limits assumed): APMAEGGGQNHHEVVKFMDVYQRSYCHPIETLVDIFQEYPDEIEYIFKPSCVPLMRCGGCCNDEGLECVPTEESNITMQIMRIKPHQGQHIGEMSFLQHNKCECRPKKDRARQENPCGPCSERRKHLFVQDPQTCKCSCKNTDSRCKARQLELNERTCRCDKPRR

[2] = molecular target: T2, VEGF 1-165 aa (UniProt P15692 27-191); experiment: direct bind ELISA (ref Ab)
T2 construct: Bought antigen coated on the ELISA plate
T2 sequence (P15692 other isoform, or with tags, fused parts or gaps limits assumed): as above

[3] = molecular target: T3, IGF1R ECD (UniProt P08069 31-935, limits assumed); experiment: Direct Bind ELISA, antigen on plate
T3 construct: extracellular domain; Bought reagent

[4] = molecular target: T4, IGF1R (antigen of the capture ELISA table) (UniProt P08069 31-932, limits assumed); experiment: antigen capture ELISA, IGF1R
T4 construct: No IGF1R capture ELISA method is described; also called IGFR

[5] = molecular target: T5, RON (MSP Receptor ECD-His tag) (UniProt Q04912 25-957, limits assumed); experiment: Direct Bind ELISA, antigen on plate
T5 construct: extracellular domain; Bought reagent

[6] = molecular target: T6, his-tagged, recombinant RON protein (R&D Systems # 1947-MS) (UniProt Q04912 25-957, limits assumed); experiment: IgG-Fc capture ELISA, his-tagged RON
T6 construct: extracellular domain; also called MSP Receptor ECD-His tag

[7] = molecular target: T7, HGF (HGF-His tag) (UniProt P14210 32-728); experiment: Direct Bind ELISA, antigen on plate
T7 construct: Bought reagent
T7 sequence (P14210 32-728 limits assumed): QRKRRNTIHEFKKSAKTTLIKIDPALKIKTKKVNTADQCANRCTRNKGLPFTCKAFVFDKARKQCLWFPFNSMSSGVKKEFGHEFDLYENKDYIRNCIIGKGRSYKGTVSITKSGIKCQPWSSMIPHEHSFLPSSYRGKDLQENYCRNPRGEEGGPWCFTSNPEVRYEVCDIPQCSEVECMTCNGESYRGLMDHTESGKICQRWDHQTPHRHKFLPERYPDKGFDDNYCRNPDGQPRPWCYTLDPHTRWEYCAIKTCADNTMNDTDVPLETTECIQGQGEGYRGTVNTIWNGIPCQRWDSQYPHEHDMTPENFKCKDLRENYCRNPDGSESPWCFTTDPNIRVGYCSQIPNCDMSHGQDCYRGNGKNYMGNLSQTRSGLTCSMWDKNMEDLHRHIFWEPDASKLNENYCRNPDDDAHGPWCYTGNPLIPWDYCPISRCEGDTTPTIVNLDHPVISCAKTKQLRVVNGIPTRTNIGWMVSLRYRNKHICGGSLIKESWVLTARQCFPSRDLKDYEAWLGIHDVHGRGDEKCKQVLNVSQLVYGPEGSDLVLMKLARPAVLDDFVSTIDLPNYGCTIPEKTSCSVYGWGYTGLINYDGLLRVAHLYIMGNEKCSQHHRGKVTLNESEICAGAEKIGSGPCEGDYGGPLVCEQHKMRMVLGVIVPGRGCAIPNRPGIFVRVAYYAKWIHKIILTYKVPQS

[8] = molecular target: T8, biotin-labeled human IGF2 (human, UniProt P01344 25-91, biotin-labeled); experiment: capture ELISA, DVD-Ig captured by anti-human Fc, biotin-labeled IGF2; C-terminal VD
[9] = molecular target: T9, biotin-labeled human IGF1 (human, UniProt P05019 49-118, biotin-labeled); experiment: capture ELISA, DVD-Ig captured by anti-human Fc, biotin-labeled IGF1; C-terminal VD
[10] = molecular target: biotinylated VEGF (UniProt P15692-4 27-191, limits assumed, biotinylated); experiment: capture ELISA, DVD-Ig captured by anti-human Fc, biotinylated VEGF; N-terminal VD
biotinylated VEGF, sequence (P15692 other isoform, or with tags, fused parts or gaps limits assumed): as the sequence (P15692 other isoform, or with tags, fused parts or gaps limits assumed) above

[11] = molecular target: T9, biotin-labeled human IGF1; experiment: capture ELISA, antibody captured by anti-human Fc, biotin-labeled IGF1
[12] = molecular target: T8, biotin-labeled human IGF2; experiment: capture ELISA, antibody captured by anti-human Fc, biotin-labeled IGF2
[13] = molecular target: T10, IGF2 (IGF-2) (UniProt P01344 25-91); experiment: Direct Bind ELISA, antigen on plate; second value of IGF1/IGF2 cell
T10 construct: Bought reagent

[14] = molecular target: T11, IGF1 (IGF-I) (UniProt P05019 49-118); experiment: Direct Bind ELISA, antigen on plate; first value of IGF1/IGF2 cell
T11 construct: Bought reagent

[15] = molecular target: T6, his-tagged, recombinant RON protein …; experiment: IgG-Fc capture ELISA, his-tagged RON; N-terminal VD
[16] = molecular target: T12, biotin-labeled human DLL4 extracellular domain (human, UniProt Q9NR61 27-529, biotin-labeled); experiment: capture ELISA, DVD-Ig captured by anti-human Fc, biotin-labeled human DLL4 ECD; C-terminal VD
T12 construct: extracellular domain

[17] = molecular target: T13, PlGF (UniProt P49763-2 21-149, limits assumed); experiment: direct bind ELISA, antigen on plate; reference antibody
T13 construct: Bought antigen coated on the ELISA plate; also called Placental GF; placental growth factor
T13 sequence (looked up): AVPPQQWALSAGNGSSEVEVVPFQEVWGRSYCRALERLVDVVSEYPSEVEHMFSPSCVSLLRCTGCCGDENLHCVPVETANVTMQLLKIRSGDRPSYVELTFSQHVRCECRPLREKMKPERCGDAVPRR

[18] = molecular target: T12, biotin-labeled human DLL4 extracellular …; experiment: DLL4 capture ELISA, antibody captured by anti-human Fc, biotin-labeled human DLL4 ECD
[19] = molecular target: T12, biotin-labeled human DLL4 extracellular …; experiment: capture ELISA, antibody captured by anti-human Fc, biotin-labeled human DLL4 ECD

B1: AB071 (antibody, human IgG1, kappa, L234A L235A, V domains shown)
VH: EVQLVESGGGLVQPGGSLRLSCAASGFTINASWIHWVRQAPGKGLEWVGAIYPYSGYTNYADSVKGRFTISADTSKNTAYLQMNSLRAEDTAVYYCARWGHSTSPWAMDYWGQGTLVTVSS
VL: DIQMTQSPSSLSASVGDRVTITCRASQVIRRSLAWYQQKPGKAPKLLIYAASNLASGVPSRFSGSGSGTDFTLTISSLQPEDFATYYCQQSNTSPLTFGQGTKVEIKR
notes: also called AB071VH; AB071VL
EC50 [1]: 20.9 nM

B5: AB005 (anti-RON (seq. 1) parent antibody) (antibody, IgG1, V domains shown)
VH: EVQLVQSGGGLVKPGGSLRLSCAASGFTFSSYAMHWVRQAPGKGLEWVAVISYDGSNKYYADSVKGRFTISRDNSKNTLYLQMNSLRAEDTAVYYCARFSGWPNNYYYYGMDVWGQGTTVTVSS
VL: DVVMTQSPLSLPVTPGEPASISCRSSQSLLHSNGFNYVDWYLQKPGQSPHLLIYFGSYRASGVPDRFSGSGSGTDFTLKISRVEAEDVGVYYCMQALQTPPWTFGQGTKVEIRR
notes: HC vector V1 (wild-type hIgG1 constant), LC vector V2 (kappa constant); also called AB005VH; AB005VL
EC50 [5]: 0.26 nM and 0.21 nM

B6: AB005 (antibody, human IgG1, kappa, V domains shown)
VH: EVQLVQSGGGLVKPGGSLRLSCAASGFTFSSYAMHWVRQAPGKGLEWVAVISYDGSNKYYADSVKGRFTISRDNSKNTLYLQMNSLRAEDTAVYYCARFSGWPNNYYYYGMDVWGQGTTVTVSS
VL: DVVMTQSPLSLPVTPGEPASISCRSSQSLLHSNGFNYVDWYLQKPGQSPHLLIYFGSYRASGVPDRFSGSGSGTDFTLKISRVEAEDVGVYYCMQALQTPPWTFGQGTKVEIRR
EC50 [6]: 1.6 nM and 0.7 nM and 1.3 nM

B7: AB012 (anti-HGF (seq. 1) parent antibody) (antibody, IgG1, V domains shown)
VH: QVQLVESGGGLVKPGGSLRLSCAASGFTFSDYYMSWIRQAPGKGLEWVSYISSSGSTIYYADSVKGRFTISRDNAKNSLYLQMNSLRAEDTAVYYCARDEYNSGWYVLFDYWGQGTLVTVSS
VL: DIQMTQSPSSVSASVGDRVTITCRASQGISSWLAWYQQKPGKAPNLLIYEASSLQSGVPSRFGGSGSGTDFTLTISSLQPEDFATYYCQQANGFPWTFGQGTKVEIKR
notes: HC vector V1 (wild-type hIgG1 constant), LC vector V2 (kappa constant); also called AB012VH; AB012VL
EC50 [7]: 0.22 nM and 0.19 nM

B10: AB010 (anti-IGF1,2 parent antibody) (antibody, IgG1, V domains shown)
VH: QVQLVQSGAEVKKPGASVKVSCKASGYTFTSYDINWVRQATGQGLEWMGWMNPNSGNTGYAQKFQGRVTMTRNTSISTAYMELSSLRSEDTAVYYCARDPYYYYYGMDVWGQGTTVTVSS
VL: QSVLTQPPSVSAAPGQKVTISCSGSSSNIENNHVSWYQQLPGTAPKLLIYDNNKRPSGIPDRFSGSKSGTSATLGITGLQTGDEADYYCETWDTSLSAGRVFGGGTKLTVLG
notes: HC vector V1 (wild-type hIgG1 constant), LC vector V3 (lambda constant); also called AB010VH; AB010VL
EC50 [13]: 10 nM and 18.1 nM | EC50 [14]: 4.77 nM

B11: DVD033 (bispecific antibody, human IgG1, kappa)
heavy: not shown
light: DVVMTQSPLSLPVTPGEPASISCRSSQSLLHSNGFNYVDWYLQKPGQSPHLLIYFGSYRASGVPDRFSGSGSGTDFTLKISRVEAEDVGVYYCMQALQTPPWTFGQGTKVEIRRTVAAPDIQMTQSPSSVSASVGDRVTITCRASQGISSWLAWYQQKPGKAPNLLIYEASSLQSGVPSRFGGSGSGTDFTLTISSLQPEDFATYYCQQANGFPWTFGQGTKVEIKRTVAAPSVFIFPPSDEQLKSGTASVVCLLNNFYPREAKVQWKVDNALQSGNSQESVTEQDSKDSTYSLSSTLTLSKADYEKHKVYACEVTHQGLSSPVTKSFNRGEC
notes: DVD-Ig; also called RON / HGF DVD-Ig; DVD033H
EC50 [15]: 2.5 nM

B12: DVD043 (bispecific antibody, human IgG1, kappa)
heavy: not shown
light: DIQMTQSPSSLSASVGDRVTITCSASQDISNYLNWYQQKPGKAPKVLIYFTSSLHSGVPSRFSGSGSGTDFTLTISSLQPEDFATYYCQQYSTVPWTFGQGTKVEIKRTVAAPDIQMTQSPSSLSASVGDRVTITCRASQDVSTAVAWYQQKPGKAPKLLIYSASFLYSGVPSRFSGSGSGTDFTLTISSLQPEDFATTYYCQQSYTGTVTFGQGTKVEIKRTVAAPSVFIFPPSDEQLKSGTASVVCLLNNFYPREAKVQWKVDNALQSGNSQESVTEQDSKDSTYSLSSTLTLSKADYEKHKVYACEVTHQGLSSPVTKSFNRGEC
notes: DVD-Ig; also called VEGF / DLL4 DVD-Ig; DVD043H
EC50 [10]: 0.2 nM | EC50 [16]: 0.5 nM

B14: AB015 (antibody, human IgG1, kappa)
heavy: not shown
light: DIQMTQSPSSLSASVGDRVTITCRASQDVSTAVAWYQQKPGKAPKLLIYSASFLYSGVPSRFSGSGSGTDFTLTISSLQPEDFATTYYCQQSYTGTVTFGQGTKVEIKRTVAAPSVFIFPPSDEQLKSGTASVVCLLNNFYPREAKVQWKVDNALQSGNSQESVTEQDSKDSTYSLSSTLTLSKADYEKHKVYACEVTHQGLSSPVTKSFNRGEC
EC50 [18]: 0.15 nM and 0.18 nM and 0.14 nM | EC50 [19]: 0.03 nM

More lines, now with the values ahead:

EC50 [2]: 40.4 nM and 80.4 nM and 79.5 nM
B2: AB071 (antibody, human IgG1, kappa, L234A L235A, V domains shown)
VH: EVQLVESGGGLVQPGGSLRLSCAASGFTINASWIHWVRQAPGKGLEWVGAIYPYSGYTNYADSVKGRFTISADTSKNTAYLQMNSLRAEDTAVYYCARWGHSTSPWAMDYWGQGTLVTVSS
VL: DIQMTQSPSSLSASVGDRVTITCRASQVIRRSLAWYQQKPGKAPKLLIYAASNLASGVPSRFSGSGSGTDFTLTISSLQPEDFATYYCQQSNTSPLTFGQGTKVEIKR
notes: Vectors V7/V2

EC50 [3]: 0.28 nM
B3: AB011 (anti-IGF1R (seq. 1) parent antibody) (antibody, IgG1, V domains shown)
VH: EVQLLESGGGLVQPGGSLRLSCTASGFTFSSYAMNWVRQAPGKGLEWVSAISGSGGTTFYADSVKGRFTISRDNSRTTLYLQMNSLRAEDTAVYYCAKDLGWSDSYYYYYGMDVWGQGTTVTVSS
VL: DIQMTQFPSSLSASVGDRVTITCRASQGIRNDLGWYQQKPGKAPKRLIYAASRLHRGVPSRFSGSGSGTEFTLTISSLQPEDFATYYCLQHNSYPCSFGQGTKLEIKR
notes: HC vector V1 (wild-type hIgG1 constant), LC vector V2 (kappa constant); also called AB011VH; AB011VL

EC50 [4]: 0.3 nM
B4: AB011 (antibody, human IgG1, kappa, V domains shown)
VH: EVQLLESGGGLVQPGGSLRLSCTASGFTFSSYAMNWVRQAPGKGLEWVSAISGSGGTTFYADSVKGRFTISRDNSRTTLYLQMNSLRAEDTAVYYCAKDLGWSDSYYYYYGMDVWGQGTTVTVSS
VL: DIQMTQFPSSLSASVGDRVTITCRASQGIRNDLGWYQQKPGKAPKRLIYAASRLHRGVPSRFSGSGSGTEFTLTISSLQPEDFATYYCLQHNSYPCSFGQGTKLEIKR

EC50 [8]: 7340 nM | EC50 [9]: 381 nM | EC50 [10]: 0.7 nM
B8: DVD041 (bispecific antibody, human IgG1, lambda)
heavy: not shown
light: DIQMTQSPSSLSASVGDRVTITCSASQDISNYLNWYQQKPGKAPKVLIYFTSSLHSGVPSRFSGSGSGTDFTLTISSLQPEDFATYYCQQYSTVPWTFGQGTKVEIKRTVAAPQSVLTQPPSVSAAPGQKVTISCSGSSSNIENNHVSWYQQLPGTAPKLLIYDNNKRPSGIPDRFSGSKSGTSATLGITGLQTGDEADYYCETWDTSLSAGRVFGGGTKLTVLGQPKAAPSVTLFPPSSEELQANKATLVCLISDFYPGAVTVAWKADSSPVKAGVETTTPSKQSNNKYAASSYLSLTPEQWKSHRSYSCQVTHEGSTVEKTVAPTECS
notes: DVD-Ig; also called VEGF / IGF1,2 DVD-Ig; DVD041H

EC50 [11]: 4.8 nM | EC50 [12]: 10 nM and 18.1 nM
B9: AB010 (antibody, human IgG1, lambda, V domains shown)
VH: QVQLVQSGAEVKKPGASVKVSCKASGYTFTSYDINWVRQATGQGLEWMGWMNPNSGNTGYAQKFQGRVTMTRNTSISTAYMELSSLRSEDTAVYYCARDPYYYYYGMDVWGQGTTVTVSS
VL: QSVLTQPPSVSAAPGQKVTISCSGSSSNIENNHVSWYQQLPGTAPKLLIYDNNKRPSGIPDRFSGSKSGTSATLGITGLQTGDEADYYCETWDTSLSAGRVFGGGTKLTVLG
notes: also called IGF1,2 parent antibody

EC50 [17]: 0.13 nM and 0.14 nM
B13: AB047 (antibody, human IgG1, kappa, V domains shown)
VH: QVQLQQSGAELVKPGASVKISCKASGYTFTDYYINWVKLAPGQGLEWIGWIYPGSGNTKYNEKFKGKATLTIDTSSSTAYMQLSSLTSEDTAVYFCVRDSPFFDYWGQGTLLTVSS
VL: DIVLTQSPDSLAVSLGERVTMNCKSSQSLLNSGMRKSFLAWYQQKPGQSPKLLIYWASTRESGVPDRFTGSGSGTDFTLTISSVQAEDVAVYYCKQSYHLFTFGSGTKLEIKR
notes: also called AB047VH; AB047VL
